Biological target: recombinant human PD-1 (human) (UniProt Q15116)
Assay: ELISA

Chain of UniProt Q15116 (Q15116 25-170): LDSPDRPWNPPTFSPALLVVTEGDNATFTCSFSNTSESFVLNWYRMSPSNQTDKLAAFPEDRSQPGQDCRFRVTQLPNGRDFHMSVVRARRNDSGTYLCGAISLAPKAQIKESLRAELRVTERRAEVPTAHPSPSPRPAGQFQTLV

EC50: 2.88 nM
Substance: Recombinant cynomolgus monkey PD-L1.mFc (Fc fusion)
